Results on 50 variants are retold here after article PMC13397619.

B1: NLV3 TCR beta chain (CDR3β only) (parent)
chain: ASSPTGGSPSPLH
partner: MLVPMVATV

Variants of B1 are the subject of one assay. The assay can be described thus: T-Switch: Jurkat TCRβ−/− cells expressing a CDR3 saturation-mutagenesis library, stained with two peptide-HLA-A*02:01 tetramers (original and novel peptide) plus anti-CD3, FACS-sorted into four gates, gDNA sequenced. The following applies: with HLA-A*02:01 with peptide … (NLV 3-1, the original bait), tetramers 1 µg/mL, 30 min on ice, DP and SW gates expanded about 10 days between rounds ('two to three rounds of selection' in the Methods), gate SP: higher = more of the variant in the gate that binds the original peptide and not the novel one = retained original binding. Fold enrichment of the CDR3 variant in one FACS gate of a two-tetra, unresolved parent, parent is a CDR3 fragment, scale: fold enrichment, numbering: sequential-on-construct, sequence ….
With […] (CDR3 as printed); S10H derived by comparing it with the table's wild-type CDR3 ASSPTGGSPSPLH, the enrichment turned out to be 0.

On to […] (CDR3 as printed); S3D derived by comparing it with the table's wild-type CDR3 ASSPTGGSPSPLH, for which the enrichment stood at 3.32.

Turning to […] (CDR3 as printed); P4H derived by comparing it with the table's wild-type CDR3 ASSPTGGSPSPLH, the enrichment was 0.

Consider […] (CDR3 as printed); S3W derived by comparing it with the table's wild-type CDR3 ASSPTGGSPSPLH, for which the enrichment was 0.

For the variant […] (CDR3 as printed); P4N derived by comparing it with the table's wild-type CDR3 ASSPTGGSPSPLH, the enrichment was 1.25.

As to […] (CDR3 as printed); P4F derived by comparing it with the table's wild-type CDR3 ASSPTGGSPSPLH, the enrichment is 1.88.

On to […] (CDR3 as printed); P11G derived by comparing it with the table's wild-type CDR3 ASSPTGGSPSPLH, for which the enrichment amounted to 0.

Regarding […] (CDR3 as printed); S10P derived by comparing it with the table's wild-type CDR3 ASSPTGGSPSPLH, the enrichment was found to be 0.

On to […] (CDR3 as printed); P9K derived by comparing it with the table's wild-type CDR3 ASSPTGGSPSPLH, for which the enrichment was determined as 0.

Consider […] (CDR3 as printed); S8D derived by comparing it with the table's wild-type CDR3 ASSPTGGSPSPLH, for which the enrichment is 0.

On to […] (CDR3 as printed); P4Q derived by comparing it with the table's wild-type CDR3 ASSPTGGSPSPLH, for which the enrichment came out at 3.21.

Regarding […] (CDR3 as printed); S10F derived by comparing it with the table's wild-type CDR3 ASSPTGGSPSPLH, the enrichment amounted to 0.

Consider […] (CDR3 as printed); P4A derived by comparing it with the table's wild-type CDR3 ASSPTGGSPSPLH, for which the enrichment worked out at 1.98.

Regarding […] (CDR3 as printed); S8L derived by comparing it with the table's wild-type CDR3 ASSPTGGSPSPLH, the enrichment came out at 0.

For the variant […] (CDR3 as printed); S3I derived by comparing it with the table's wild-type CDR3 ASSPTGGSPSPLH, the enrichment worked out at 0.

As to […] (CDR3 as printed); P4R derived by comparing it with the table's wild-type CDR3 ASSPTGGSPSPLH, the enrichment worked out at 0.316.

In the case of […] (CDR3 as printed); S10R derived by comparing it with the table's wild-type CDR3 ASSPTGGSPSPLH, the enrichment was 0.

Consider […] (CDR3 as printed); P4E derived by comparing it with the table's wild-type CDR3 ASSPTGGSPSPLH, for which the enrichment amounted to 3.03.

As for […] (CDR3 as printed); T5I derived by comparing it with the table's wild-type CDR3 ASSPTGGSPSPLH, the enrichment stood at 11.6.

Turning to […] (CDR3 as printed); L12S derived by comparing it with the table's wild-type CDR3 ASSPTGGSPSPLH, the enrichment was 1.12.

On to […] (CDR3 as printed); S3K derived by comparing it with the table's wild-type CDR3 ASSPTGGSPSPLH, for which the enrichment stood at 0.

On to […] (CDR3 as printed); T5H derived by comparing it with the table's wild-type CDR3 ASSPTGGSPSPLH, for which the enrichment worked out at 1.12.

Regarding […] (CDR3 as printed); S2T derived by comparing it with the table's wild-type CDR3 ASSPTGGSPSPLH, the enrichment came to 4.08.

Take […] (CDR3 as printed); T5K derived by comparing it with the table's wild-type CDR3 ASSPTGGSPSPLH: the enrichment stood at 0.

For the variant […] (CDR3 as printed); S8G derived by comparing it with the table's wild-type CDR3 ASSPTGGSPSPLH, the enrichment was 0.

Regarding […] (CDR3 as printed); S2K derived by comparing it with the table's wild-type CDR3 ASSPTGGSPSPLH, the enrichment came out at 0.

For […] (CDR3 as printed); S10T derived by comparing it with the table's wild-type CDR3 ASSPTGGSPSPLH, the enrichment was determined as 0.

As for […] (CDR3 as printed); S3V derived by comparing it with the table's wild-type CDR3 ASSPTGGSPSPLH, the enrichment turned out to be 0.

[…] (CDR3 as printed); P4L derived by comparing it with the table's wild-type CDR3 ASSPTGGSPSPLH: the enrichment was found to be 0.

On to […] (CDR3 as printed); S10K derived by comparing it with the table's wild-type CDR3 ASSPTGGSPSPLH, for which the enrichment was 0.

In the case of […] (CDR3 as printed); L12N derived by comparing it with the table's wild-type CDR3 ASSPTGGSPSPLH, the enrichment was determined as 0.

On to […] (CDR3 as printed); P4I derived by comparing it with the table's wild-type CDR3 ASSPTGGSPSPLH, for which the enrichment was 0.897.

As to […] (CDR3 as printed); T5S derived by comparing it with the table's wild-type CDR3 ASSPTGGSPSPLH, the enrichment was found to be 0.

On to […] (CDR3 as printed); P9A derived by comparing it with the table's wild-type CDR3 ASSPTGGSPSPLH, for which the enrichment was determined as 4.97.

On to […] (CDR3 as printed); P11W derived by comparing it with the table's wild-type CDR3 ASSPTGGSPSPLH, for which the enrichment is 0.

[…] (CDR3 as printed); S3A derived by comparing it with the table's wild-type CDR3 ASSPTGGSPSPLH: the enrichment was 9.82.

Take […] (CDR3 as printed); P11H derived by comparing it with the table's wild-type CDR3 ASSPTGGSPSPLH: the enrichment came to 0.

Consider […] (CDR3 as printed); L12H derived by comparing it with the table's wild-type CDR3 ASSPTGGSPSPLH, for which the enrichment worked out at 0.

For the variant […] (CDR3 as printed); S8K derived by comparing it with the table's wild-type CDR3 ASSPTGGSPSPLH, the enrichment stood at 0.

On to […] (CDR3 as printed); T5A derived by comparing it with the table's wild-type CDR3 ASSPTGGSPSPLH, for which the enrichment turned out to be 2.2.

Regarding […] (CDR3 as printed); S8W derived by comparing it with the table's wild-type CDR3 ASSPTGGSPSPLH, the enrichment amounted to 0.

With […] (CDR3 as printed); P11S derived by comparing it with the table's wild-type CDR3 ASSPTGGSPSPLH, the enrichment is 2.02.

For […] (CDR3 as printed); P11N derived by comparing it with the table's wild-type CDR3 ASSPTGGSPSPLH, the enrichment is 0.

Take […] (CDR3 as printed); S8F derived by comparing it with the table's wild-type CDR3 ASSPTGGSPSPLH: the enrichment worked out at 0.

Take […] (CDR3 as printed); T5W derived by comparing it with the table's wild-type CDR3 ASSPTGGSPSPLH: the enrichment came out at 15.1.

[…] (CDR3 as printed); S8Q derived by comparing it with the table's wild-type CDR3 ASSPTGGSPSPLH: the enrichment is 0.

As for […] (CDR3 as printed); T5M derived by comparing it with the table's wild-type CDR3 ASSPTGGSPSPLH, the enrichment stood at 7.93.

Turning to […] (CDR3 as printed); P11T derived by comparing it with the table's wild-type CDR3 ASSPTGGSPSPLH, the enrichment was found to be 0.

Regarding […] (CDR3 as printed); P9G derived by comparing it with the table's wild-type CDR3 ASSPTGGSPSPLH, the enrichment is 0.

Still in this assay, the particulars now being: with HLA-A*02:01 with peptide … (NLV 3-1, the original bait), tetramers 1 µg/mL, 30 min on ice, DP and SW gates expanded about 10 days between rounds ('two to three rounds of selection' in the Methods), gate SP: higher = more of the variant in the gate that binds the original peptide and not the novel one = retained original binding. Fold enrichment of the CDR3 variant in one FACS gate of a two-tetra, unresolved parent, parent is a CDR3 fragment, zero in all gates, scale: fold enrichment, numbering: ….
Consider […] (CDR3 as printed); S2L derived by comparing it with the table's wild-type CDR3 ASSPTGGSPSPLH, for which the enrichment came to 0.
